Numbering of substitutions follows the chain as printed. Like-named read-outs stand apart in the source and are kept apart here.
Experiments:
[1] = target: T1, human CEACAM5 expressed on human cancer cell lines (MKN-45, NCI-H441, SK-CO-1, SNU-16, LS174T) (human, UniProt P06731 35-685); experiment: cellular binding on MKN45 cells (FIG. 2)
T1 construct: Endogenous protein on cells; also called MKN45 cell line expressing human CEACAM5; CEACAM5-positive cell lines
T1 sequence: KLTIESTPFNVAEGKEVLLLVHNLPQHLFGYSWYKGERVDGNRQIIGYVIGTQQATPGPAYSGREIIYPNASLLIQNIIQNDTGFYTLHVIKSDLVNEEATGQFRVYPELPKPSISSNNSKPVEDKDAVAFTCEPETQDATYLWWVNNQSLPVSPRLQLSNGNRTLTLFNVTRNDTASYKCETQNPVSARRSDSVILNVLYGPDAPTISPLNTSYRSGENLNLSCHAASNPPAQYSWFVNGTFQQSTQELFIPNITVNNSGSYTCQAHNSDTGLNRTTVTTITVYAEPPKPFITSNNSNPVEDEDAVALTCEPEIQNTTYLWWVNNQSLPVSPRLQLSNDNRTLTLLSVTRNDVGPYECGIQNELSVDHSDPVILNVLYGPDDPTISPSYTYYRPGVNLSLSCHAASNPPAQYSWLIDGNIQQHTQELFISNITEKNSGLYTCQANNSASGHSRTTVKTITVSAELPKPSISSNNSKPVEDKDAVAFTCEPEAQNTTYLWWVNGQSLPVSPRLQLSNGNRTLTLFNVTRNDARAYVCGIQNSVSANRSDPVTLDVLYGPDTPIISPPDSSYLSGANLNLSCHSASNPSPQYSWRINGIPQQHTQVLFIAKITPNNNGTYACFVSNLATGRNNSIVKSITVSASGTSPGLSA

[2] = target: T1, human CEACAM5 expressed on human cancer …; experiment: cell-based or functional assay
[3] = target: T1, human CEACAM5 expressed on human cancer …; experiment: cell-based or functional assay; remark: listed apart in the source
[4] = target: T1, human CEACAM5 expressed on human cancer …; experiment: binding to MKN-45 cells
[5] = target: T1, human CEACAM5 expressed on human cancer …; experiment: flow cytometry on MKN-45 cells, antibody titrated
[6] = target: T1, human CEACAM5 expressed on human cancer …; experiment: cell-based or functional assay; remark: listed apart in the source
[7] = target: T1, human CEACAM5 expressed on human cancer …; experiment: cell-based or functional assay; remark: listed apart in the source

B1: hmn-14 (hMN14, antibody of labetuzumab govitecan) (antibody, human IgG1, kappa, V domains shown)
VH: EVQLVESGGGVVQPGRSLRLSCSASGFDFTTYWMSWVRQAPGKGLEWIGEIHPDSSTINYAPSLKDRFTISRDNAKNTLFLQMDSLRPEDTGVYFCASLYFGFPWFAYWGQGTPVTVSS
VL: DIQLTQSPSSLSASVGDRVTITCKASQDVGTSVAWYQQKPGKAPKLLIYWTSTRHTGVPSRFSGSGSGTDFTFTISSLQPEDIATYYCQQYSLYRSFGQGTKVEIKR
Question: B1 was tested. Which EC50 [1] did it give?
Answer: Its EC50 is 11.8 nM.

B2: ADC1 (mAb1-glucuronid-exatecan) (antibody, human IgG1, kappa)
heavy: EVQLQESGPGLVKPSQTLSLTCTVSDGSVSRGGYYLTWIRQHPGKGLEWIGYIYYSGSTYFNPSLRSRVTMSVDTSKNQFSLKLSSVTAADTAVYYCARGIAVAPFDYWGQGTLVTVSSASTKGPSVFPLAPSSKSTSGGTAALGCLVKDYFPEPVTVSWNSGALTSGVHTFPAVLQSSGLYSLSSVVTVPSSSLGTQTYICNVNHKPSNTKVDKRVEPKSCDKTHTCPPCPAPPVAGPSVFLFPPKPKDTLMISRTPEVTCVVVDVSHEDPEVKFNWYVDGVEVHNAKTKPREEQYNSTYRVVSVLTVLHQDWLNGKEYKCKVSNKALPSSIEKTISKAKGQPREPQVYTLPPSREEMTKNQVSLTCLVKGFYPSDIAVEWESNGQPENNYKTTPPVLDSDGSFFLYSKLTVDKSRWQQGNVFSCSVMHEALHNHYTQKSLSLSPG
light: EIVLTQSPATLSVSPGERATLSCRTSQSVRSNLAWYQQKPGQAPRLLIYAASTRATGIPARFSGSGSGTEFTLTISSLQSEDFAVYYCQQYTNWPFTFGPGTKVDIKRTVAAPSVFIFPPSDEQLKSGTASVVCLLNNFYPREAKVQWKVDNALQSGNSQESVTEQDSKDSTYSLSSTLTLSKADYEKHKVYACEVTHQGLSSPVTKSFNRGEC
modifications: drug-linker DL1 on the reduced interchain cysteine; drug-linker DL1 (maleimido-beta-glucuronide-exatecan) on sulfur of reduced interchain cysteines; DAR 7.9 for the whole antibody
Question: For B2, which “fold higher potency than ADC SAR DM4 against SK-CO-1 cells (viability assay)” value [2] is on record?
Answer: The value was 2.9 fold.

Question: And the “IC50 [M], cell viability assay (Cell Titer-Glo, 6 days), LS174T cells” value (“IC50 [M], cell viability assay … LS174T cells” below) [3]?
Answer: The value was 3.8e-10 M.

Question: What about the “IC50 [M], cell viability assay (Cell Titer-Glo, 6 days), MKN-45 cells” value (“IC50 [M], cell viability assay … MKN-45 cells” for short) [3] of the same binder?
Answer: Its value is 6.2e-10 M.

Question: And the “IC50 [M], cell viability assay (Cell Titer-Glo, 6 days), SK-CO-1 cells” value (from here on “IC50 [M], cell viability assay … SK-CO-1 cells”) [3]?
Answer: The value was 8.5e-11 M.

Question: What about the “IC50 [M], cell viability assay (Cell Titer-Glo, 6 days), SNU-16 cells” value (shortened to “IC50 [M], cell viability assay … SNU-16 cells”) [3] of the same binder?
Answer: Its value is 3.2e-10 M.

B3: ADC2 (mAb1-AAN-exatecan) (antibody, human IgG1, kappa)
heavy: B2 heavy
light: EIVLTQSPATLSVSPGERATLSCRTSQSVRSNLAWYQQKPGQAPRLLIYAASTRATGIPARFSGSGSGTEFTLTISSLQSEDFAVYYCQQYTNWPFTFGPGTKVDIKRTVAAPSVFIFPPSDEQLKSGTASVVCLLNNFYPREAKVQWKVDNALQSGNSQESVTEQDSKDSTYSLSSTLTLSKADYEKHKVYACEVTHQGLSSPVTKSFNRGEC
modifications: drug-linker DL2 on the reduced interchain cysteine; drug-linker DL2 (legumain-cleavable Ala-Ala-Asn linker, exatecan) on reduced interchain cysteines; DAR 7.6 for the whole antibody
Question: What does the source list for B3?
Answer: fold higher potency than ADC SAR DM4 against SK-CO-1 cells (viability assay) [2]: 2.7 fold; IC50 [M], cell viability assay (Cell Titer-Glo, 6 days), LS174T cells [3]: 2.8e-10 M; IC50 [M], cell viability assay (Cell Titer-Glo, 6 days), MKN-45 cells [3]: 4.7e-10 M; IC50 [M], cell viability assay (Cell Titer-Glo, 6 days), SK-CO-1 cells [3]: 6.9e-11 M; IC50 [M], cell viability assay (Cell Titer-Glo, 6 days), SNU-16 cells [3]: 2.8e-10 M

B4: Variant 1 (VH1.00/VL1.00) (antibody, V domains shown)
VH: EVQLQESGPGLVKPSQTLSLTCTVSDGSVSRGGYYLTWIRQHPGKGLEWIGYIYYSGSTYFNPSLRSRLTMSVDTSKNQFSLKLSSVTAADTAVYYCARGIAVAPFDYWGQGTLVTVSS
VL: ETTLTQSPATLSVSPGERATLSCRTSQSVRSNLAWYQQKPGQAPRLLIYAASTRATGIPARFSGSGSGTEFTLTIGSLQSEDFAVYFCQQYTNWPFTFGPGTKVEIKR
notes: also called optimized antibody Variant 1
Question: Does B4 bind [4]?
Answer: Result: binds

B5: Variant 6 (VH1.02/VL1.00) (antibody, V domains shown)
VH: B4 VH with L69V
VL: B4 VL
notes: also called optimized antibody Variant 6
Question: Does B5 bind [4]?
Answer: Result: binds

B6: Rituximab (antibody, human IgG1, kappa, V domains shown)
VH: QVQLQQPGAELVKPGASVKMSCKASGYTFTSYNMHWVKQTPGRGLEWIGAIYPGNGDTSYNQKFKGKATLTADKSSSTAYMQLSSLTSEDSAVYYCARSTYYGGDWYFNVWGAGTTVTVSA
VL: QIVLSQSPAILSASPGEKVTMTCRASSSVSYIHWFQQKPGSSPKPWIYATSNLASGVPVRFSGSGSGTSYSLTISRVEAEDAATYYCQQWTSNPPTFGGGTKLEIKR
notes: also called mAb4-M; anti-CD20 control antibody
Question: Does B6 bind [5]?
Answer: Result: no binding (tested: 2000 nM)

B7: ADC1-M (conjugate of mAb1-M with DL1) (antibody, human IgG1, kappa, L234A L235A)
heavy: EVQLQESGPGLVKPSQTLSLTCTVSDGSVSRGGYYLTWIRQHPGKGLEWIGYIYYSGSTYFNPSLRSRVTMSVDTSKNQFSLKLSSVTAADTAVYYCARGIAVAPFDYWGQGTLVTVSSASTKGPSVFPLAPSSKSTSGGTAALGCLVKDYFPEPVTVSWNSGALTSGVHTFPAVLQSSGLYSLSSVVTVPSSSLGTQTYICNVNHKPSNTKVDKRVEPKSCDKTHTCPPCPAPEAAGGPSVFLFPPKPKDTLYITREPEVTCVVVDVSHEDPEVKFNWYVDGVEVHNAKTKPREEQYNSTYRVVSVLTVLHQDWLNGKEYKCKVSNKALPAPIEKTISKAKGQPREPQVYTLPPSREEMTKNQVSLTCLVKGFYPSDIAVEWESNGQPENNYKTTPPVLDSDGSFFLYSKLTVDKSRWQQGNVFSCSVMHEALHNHYTQKSLSLSPG
light: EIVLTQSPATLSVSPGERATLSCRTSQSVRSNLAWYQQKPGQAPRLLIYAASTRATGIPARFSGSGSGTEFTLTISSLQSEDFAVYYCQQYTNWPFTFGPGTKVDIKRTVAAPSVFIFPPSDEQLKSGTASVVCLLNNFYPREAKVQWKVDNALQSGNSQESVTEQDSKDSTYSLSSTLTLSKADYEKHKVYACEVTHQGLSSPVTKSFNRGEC
modifications: DL1 by interchain cysteine conjugation; DL1 (maleimido-b-glucuronide-exatecan) by interchain cysteine conjugation; DAR 8.16
Question: How did the “SPECIFICITY FACTOR (IC50 in CEACAM5-negative MDA-MB-231 divided by IC50 in MKN-45)” value [6] turn out when B7 was run?
Answer: The value was 201 fold.

Question: And the “SPECIFICITY FACTOR (IC50 in CEACAM5-negative MDA-MB-231 divided by IC50 in SK-CO-1)” value [6]?
Answer: The value was 874 fold.

Question: And the “SPECIFICITY FACTOR (IC50 in CEACAM5-negative MDA-MB-231 divided by IC50 in SNU-16)” value [6]?
Answer: The value was 242 fold.

Question: And the “IC50 [M], cell viability assay … LS174T cells” value [7]?
Answer: Its value is 6e-10 M.

Question: And the “IC50 [M], cell viability assay … MKN-45 cells” value [7]?
Answer: Its value is 5.2e-10 M.

Question: What about the “IC50 [M], cell viability assay … SK-CO-1 cells” value [7] of the same binder?
Answer: Its value is 7.6e-11 M.

Question: What about the “IC50 [M], cell viability assay … SNU-16 cells” value [7] of the same binder?
Answer: The value was 3.6e-10 M.

B8: ADC2-M (conjugate of mAb2-M with DL1-M) (antibody, human IgG1, kappa, L234A L235A)
heavy: B7 heavy
light: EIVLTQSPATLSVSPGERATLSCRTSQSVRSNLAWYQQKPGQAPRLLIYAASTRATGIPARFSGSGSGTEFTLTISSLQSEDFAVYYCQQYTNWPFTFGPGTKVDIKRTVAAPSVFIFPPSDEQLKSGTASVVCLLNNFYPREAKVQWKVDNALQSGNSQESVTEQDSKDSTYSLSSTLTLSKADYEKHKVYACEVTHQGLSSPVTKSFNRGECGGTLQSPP
modifications: MTG tag GGTLQSPP at the C-terminus is a conjugation site for DL1-M; DL1-M (NH2-GGG-b-glucuronide-exatecan) coupled by microbial transglutaminase; DAR 3.86 for the whole antibody; residues carrying the drug not stated
Question: Which “SPECIFICITY FACTOR (IC50 in MDA-MB-231, set to 100 nM, divided by IC50 in MKN-45)” value [6] does the source give for B8 here?
Answer: The value was over 167 fold.

Question: And the “SPECIFICITY FACTOR (IC50 in MDA-MB-231, set to 100 nM, divided by IC50 in SK-CO-1)” value [6]?
Answer: Its value is over 632 fold.

Question: And the “SPECIFICITY FACTOR (IC50 in MDA-MB-231, set to 100 nM, divided by IC50 in SNU-16)” value [6]?
Answer: Its value is over 207 fold.

Question: What about the “IC50 [M], cell viability assay … LS174T cells” value [7] of the same binder?
Answer: Its value is 8.5e-10 M.

Question: What about the “IC50 [M], cell viability assay … MKN-45 cells” value [7] of the same binder?
Answer: Its value is 1.2e-09 M.

Question: What about the “IC50 [M], cell viability assay … SK-CO-1 cells” value [7] of the same binder?
Answer: Its value is 1.1e-10 M.

Question: What about the “IC50 [M], cell viability assay … SNU-16 cells” value [7] of the same binder?
Answer: The value was 5.1e-09 M.

Reference: US20250179210A1 (Merck KGaA, published 2025)
